Experimental data from article PMC3693442 (Science (New York, N.Y.), 2013).

Target: KLC2^TPR (tetratricopeptide repeat domain of kinesin light chain 2), wild type (UniProt O88448 217-426)
Assay: fluorescence polarisation

Binder	Kd
TNLEWDDSAI [SKIP^WD peptide (ten amino acid long peptide centered on the WD motif of SKIP)]	24 µM
PSTDWEDGDL [SKIP^WE peptide (equivalent peptide centered on the WE motif of SKIP)]	> 110 µM
